# Measurements taken from patent publication US20040023313A1 (Amgen, published 2004).
# Substitutions are numbered along the chain they refer to.
# T1: OPGL used in the RAW 264.7 osteoclast formation assay (Example 6) (human, UniProt O14788 143-317, limits assumed)
# T1 sequence (looked up): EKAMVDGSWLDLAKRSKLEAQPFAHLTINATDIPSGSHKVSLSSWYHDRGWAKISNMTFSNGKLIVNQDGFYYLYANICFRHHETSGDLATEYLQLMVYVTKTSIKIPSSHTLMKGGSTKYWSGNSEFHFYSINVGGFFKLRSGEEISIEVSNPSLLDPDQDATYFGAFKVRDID
# T2: E. coli mouse OPGL (mOPGL) 158 (mouse, UniProt O35235 158-316)
# T2 construct: kept apart
# T2 sequence (looked up): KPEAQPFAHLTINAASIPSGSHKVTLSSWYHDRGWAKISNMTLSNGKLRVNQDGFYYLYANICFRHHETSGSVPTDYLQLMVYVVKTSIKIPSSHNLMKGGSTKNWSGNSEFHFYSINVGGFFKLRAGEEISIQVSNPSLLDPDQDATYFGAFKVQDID
# T3: CHO human OPGL (hOPGL) 140 (human, UniProt O14788 140-317)
# T3 construct: also called CHO hOPGL 140
# T3 sequence (looked up): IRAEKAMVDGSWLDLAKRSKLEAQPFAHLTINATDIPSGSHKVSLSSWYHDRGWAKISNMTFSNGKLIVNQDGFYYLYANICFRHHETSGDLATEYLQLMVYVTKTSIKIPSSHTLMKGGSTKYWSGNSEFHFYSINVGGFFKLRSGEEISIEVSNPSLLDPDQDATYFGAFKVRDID
# T4: Murine OPGL [158-316] (murine, UniProt O35235 158-316)
# T4 sequence: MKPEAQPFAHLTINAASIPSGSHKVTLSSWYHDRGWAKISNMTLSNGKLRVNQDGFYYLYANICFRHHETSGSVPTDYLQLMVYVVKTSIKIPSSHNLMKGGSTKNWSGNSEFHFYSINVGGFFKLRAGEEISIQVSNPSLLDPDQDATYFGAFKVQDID
# B1: 18B2 anti-OPGL antibody (antibody, V domains shown)
# VH: EVQLVQSGGGLVHPGGSLRLSCVGSRFTFSAYPMHWVRQAPGKGLEWVSGIGSGGGTNYADSVKGRFTISRDTAKNSLYLQMNSLRAEDMAVYYCARGRNSFDYWGQGTLVTVSS
# VL: DIQMTQSPSSLSASVGDRVTITCRASQGISTWLAWYQQKPEKAPKSLIYAASSLQSGVPSRFSGSGSGTDFTLTISSLQPEDFATYYCQQYNSYPPTFGQGTKVEIKR
# notes: Fully human IgG1 kappa from HuMab mice
# B2: 2E11 anti-OPGL antibody (antibody, V domains shown)
# VH: EVQLVQSGGDLVHPGGSLRLSCVGSGFTFSHYPLHWVRQAPGKGLEWISGIHTGGGTYYTDSVKGRFTISSDNAKNSLYLQMNTLRAEDMAVYYCARGRNSFDYWGQGTLVIVSS
# VL: B1 VL with T31S, P80S, K103R, V104L
# notes: Fully human IgG1 kappa from HuMab mice; also called 2 µl 1
# B3: 9H7 anti-OPGL antibody (antibody, V domains shown)
# VH: EVQLVQSGGGLVHPGGSLRLSCEGSGFTFSSNGMHWVRQTPGKGLEWVSGIGTAGGTYYADSVKGRFTISRDNVKKSLYLQMNSLRAEDMAIYYCVRKDWGWFDPWGQGALVTVSS
# VL: EIVLTQSPATLSLSPGERATLSCRASQSISSYLAWYQQKPGQAPRLLIYDASNRATGIPARFSGSGSGTDFTLTISSLEPEDFAVYYCQQRSKWPPYTFGQGTKLEIKR
# notes: Fully human IgG1 kappa from HuMab mice; also called 9H7 anti-OPGL MAb
# B4: 16E1 anti-OPGL antibody (antibody, V domains shown)
# VH: EVQLVQSGGGLVHPGGSLRLSCAGSGFTFSGHALHWVRQAPGKGLEWVSGIGTHGGTYYADSVKGRFTISRDNAKNSLFLQMNSLSAEDMAVYYCTRRNWGQFDYWGQGTLVTVSS
# VL: B3 VL with I29V, K93N
# notes: as for B1
# B5: 22B3 anti-OPGL antibody (antibody, human IgG1, kappa, V domains shown)
# VH: B3 VH with D99N
# VL: B3 VL with I29V, S30N, Y36F, V85I, K93N, Y97F
# notes: as for B1
# B6: 2D8 anti-OPGL antibody (antibody, V domains shown)
# VH: B3 VH with E23A, N32Y, T40A, A54G, K76N, I92V, V96A, D99N, P105Y, A110T
# VL: B3 VL
# notes: as for B1
# Biological target: T1, OPGL used in the RAW 264.7 osteoclast …
# Test: cell-based or functional assay
row,"IC50 (ng/mL), inhibition of OPGL-driven osteoclast formation of RAW 264.7 cells (TRAP activity, OD 405 nM)",Binder
1,80 ng/mL,B1
2,77 ng/mL,B2
3,129 ng/mL,B3
4,352 ng/mL,B4
5,146 ng/mL,B5
6,611 ng/mL,B6

# Biological target: T2, E. coli mouse OPGL (mOPGL) 158
# Test: SPR (BIAcore 2000), antibody captured on Protein G, mOPGL 158 in solution
# Method: (§1) All experiments were performed on a BlAcore 2000 according to the manufacturer's instructions, with the following modifications. Experiments were performed at room temperature using a running buffer containing 10 mM Hepes (pH 7.4), 0.15M NaCl, 3 mM EDTA, and 0.005% Tween 20. Protein G at 50 μg/mL in 10 mM acetate pH 4.5 was immobilized to a level of 1,600 response units (RU) onto a CM5 Research grade sensor chip (BlAcore, Inc.). Antibodies (8-20 μg/mL) were captured onto the Protein G chip at a level of 300-400 RUs. […] Langmuir 1:1 model was used to determine binding kinetics. Protein G immobilized to 1600 RUs was used as a blank surface. A mouse monoclonal antibody was used as a positive control to show binding to hOPGL 140 and to monitor surface stability.
row,binding result,Binder
1,no binding (tested: 0.25-62 nM),B1
2,no binding (tested: 0.25-62 nM),B2
3,no binding (tested: 0.25-62 nM),B3
4,no binding (tested: 0.25-62 nM),B4
5,no binding (tested: 0.25-62 nM),B6

# Biological target: T3, CHO human OPGL (hOPGL) 140
# Test: SPR (BIAcore 2000), antibody captured on Protein G, hOPGL 140 in solution 0.25-62 nM, Langmuir 1:1
# Method: as §1
koff,kon,off rate half life t½,Binder
0.000186 s⁻¹,878000 M⁻¹ s⁻¹,1.03 h,B1
0.000132 s⁻¹,453000 M⁻¹ s⁻¹,1.46 h,B2
0.000137 s⁻¹,2.16e+06 M⁻¹ s⁻¹,1.41 h,B4
6.39e-05 s⁻¹,1.9e+06 M⁻¹ s⁻¹,3.01 h,B5

# Biological target: T4, Murine OPGL [158-316]
# Test: ELISA: plate coated with murine OPGL[158-316] at 3 µg/mL, antibody titrated 1.95-2000 ng/ml, goat anti-human IgG (Fc) detection, ABTS, OD405
# Method: (§2) After overnight incubation, the protein solutions were removed from the plate and 200 μL of 5% Chicken Serum (Gibco/BRL Cat# 16110-082) in PBST (PBS plus 0.05% Tween 20) was added to each well of the plate and plates were incubated at room temperature (RT) for 3 hours with agitation. After incubation and blocking, plates were washed 4 times with 1× K-P wash solution in dH₂O (Cat# 50-63-00, Kirkegaard & Perry Laboratories) and dried. […] Plates were incubated for 2.25 hours at room temperature with agitation, washed four times with 1× K-P wash solution and dried. Goat anti-human IgG (Fc) (Jackson ImmunoResearch, Cat# 109-036-098) was diluted 1:3000 in 5% Chicken Serum in PBST and 100 μL was added to each well. […] 100 μL of undiluted ABTS substrate (Kirkegaard & Perry; Cat# 50-66-00) was added to each well and the dish was incubated at room temperature until sufficient blue-green color developed. Color development was stopped by addition of 100 μL 1% SDS. Quantitation of color development was performed using a microtiter plate reader with detection at 405 nm.
row,binding result,Binder
1,no binding (tested: 2000 ng/ml),B1
2,no binding (tested: 2000 ng/ml),B2
3,no binding (tested: 2000 ng/ml),B3
4,no binding (tested: 2000 ng/ml),B4
5,no binding (tested: 2000 ng/ml),B6

# Biological target: T5, FLAG-murine OPGL [158-316]/DE (murine, UniProt O35235 158-316)
# T5 construct: The same paragraph also prints the changes as S231D, V232L, P233A and D235E (T234 unchanged), a numbering two higher than the 229-233 it gives first
# Test: ELISA: plate coated with FLAG-murine OPGL[158-316]/DE at 3 µg/mL, antibody titrated 1.95-2000 ng/ml, goat anti-human IgG (Fc) detection, ABTS, OD405
# Method: as §2
binding result,EC50 (read off the curve),Binder
no binding (tested: 2000 ng/ml),–,B2
–,~0.01 µg/mL,B4
–,~0.009 µg/mL,B5
